# T1: APG05459.1 (Enterococcus sp.)
# T1 sequence: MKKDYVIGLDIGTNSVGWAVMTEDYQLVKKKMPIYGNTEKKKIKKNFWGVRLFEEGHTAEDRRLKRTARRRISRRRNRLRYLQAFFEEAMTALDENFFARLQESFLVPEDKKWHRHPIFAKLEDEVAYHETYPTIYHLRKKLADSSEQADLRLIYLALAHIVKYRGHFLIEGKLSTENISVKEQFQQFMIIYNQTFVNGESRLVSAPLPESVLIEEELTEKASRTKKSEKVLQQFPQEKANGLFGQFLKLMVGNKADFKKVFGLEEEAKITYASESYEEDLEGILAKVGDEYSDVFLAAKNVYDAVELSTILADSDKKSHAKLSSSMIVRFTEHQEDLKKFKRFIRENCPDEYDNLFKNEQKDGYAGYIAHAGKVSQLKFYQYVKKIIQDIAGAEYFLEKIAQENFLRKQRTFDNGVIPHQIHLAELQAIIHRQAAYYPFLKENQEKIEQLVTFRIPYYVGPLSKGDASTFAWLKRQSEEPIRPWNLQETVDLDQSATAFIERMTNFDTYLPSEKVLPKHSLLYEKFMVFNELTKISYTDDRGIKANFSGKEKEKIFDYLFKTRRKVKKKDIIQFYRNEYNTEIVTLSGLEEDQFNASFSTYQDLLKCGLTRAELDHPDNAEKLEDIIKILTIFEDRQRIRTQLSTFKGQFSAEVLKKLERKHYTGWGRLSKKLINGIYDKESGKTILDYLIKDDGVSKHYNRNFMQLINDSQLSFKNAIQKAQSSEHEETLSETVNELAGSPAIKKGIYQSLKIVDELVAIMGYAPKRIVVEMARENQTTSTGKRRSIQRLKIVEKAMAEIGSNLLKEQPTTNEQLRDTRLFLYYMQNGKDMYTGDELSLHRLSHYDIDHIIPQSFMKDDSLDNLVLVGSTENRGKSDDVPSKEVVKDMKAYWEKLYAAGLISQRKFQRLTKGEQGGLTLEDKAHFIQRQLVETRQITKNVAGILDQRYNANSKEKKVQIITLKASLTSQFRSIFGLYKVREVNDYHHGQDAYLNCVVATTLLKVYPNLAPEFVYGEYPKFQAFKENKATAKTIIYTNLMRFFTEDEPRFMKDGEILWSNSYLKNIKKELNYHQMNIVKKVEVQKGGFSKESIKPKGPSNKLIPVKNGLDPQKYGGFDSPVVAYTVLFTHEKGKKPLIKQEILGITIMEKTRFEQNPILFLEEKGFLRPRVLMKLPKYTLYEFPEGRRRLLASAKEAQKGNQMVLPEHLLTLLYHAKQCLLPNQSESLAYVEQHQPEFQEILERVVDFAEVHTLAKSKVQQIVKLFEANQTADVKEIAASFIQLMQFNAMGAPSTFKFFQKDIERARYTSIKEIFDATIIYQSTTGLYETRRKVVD
# T2: APG05083.1 (Bacillus sp.)
# T2 chain: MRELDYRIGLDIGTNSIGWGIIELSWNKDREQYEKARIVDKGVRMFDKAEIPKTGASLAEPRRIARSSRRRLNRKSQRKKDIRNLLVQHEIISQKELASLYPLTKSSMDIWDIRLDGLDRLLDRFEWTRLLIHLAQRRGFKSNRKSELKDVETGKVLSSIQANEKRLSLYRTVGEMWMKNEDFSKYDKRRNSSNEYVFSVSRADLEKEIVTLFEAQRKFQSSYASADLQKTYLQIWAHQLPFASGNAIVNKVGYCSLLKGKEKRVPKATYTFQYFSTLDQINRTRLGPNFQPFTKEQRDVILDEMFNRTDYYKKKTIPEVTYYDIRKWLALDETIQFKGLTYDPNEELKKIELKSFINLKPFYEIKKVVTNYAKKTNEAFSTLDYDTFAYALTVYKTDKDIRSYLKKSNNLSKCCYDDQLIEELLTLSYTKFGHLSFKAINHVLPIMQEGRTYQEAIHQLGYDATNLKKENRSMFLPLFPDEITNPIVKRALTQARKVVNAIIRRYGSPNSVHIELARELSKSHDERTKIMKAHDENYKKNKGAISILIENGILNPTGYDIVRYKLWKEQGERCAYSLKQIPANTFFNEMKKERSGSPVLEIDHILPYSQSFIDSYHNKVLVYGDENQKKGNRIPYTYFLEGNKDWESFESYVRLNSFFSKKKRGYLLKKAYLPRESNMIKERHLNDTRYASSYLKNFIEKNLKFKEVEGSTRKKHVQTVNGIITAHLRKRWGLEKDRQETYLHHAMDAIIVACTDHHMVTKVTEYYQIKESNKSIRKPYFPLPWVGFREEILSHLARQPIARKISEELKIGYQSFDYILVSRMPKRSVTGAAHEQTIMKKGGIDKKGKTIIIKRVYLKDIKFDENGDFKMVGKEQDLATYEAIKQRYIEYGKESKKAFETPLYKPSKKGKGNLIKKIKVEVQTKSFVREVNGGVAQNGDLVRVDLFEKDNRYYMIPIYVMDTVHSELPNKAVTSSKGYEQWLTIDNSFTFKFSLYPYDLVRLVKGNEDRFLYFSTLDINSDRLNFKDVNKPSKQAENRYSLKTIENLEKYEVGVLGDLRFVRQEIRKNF
# Test system: T1, APG05459.1 (Enterococcus sp.)
# Assay: cleavage_in_vitro
# Conditions: not given
row,Molecule,activity
1,GAGCGGACAGCAGCUUCCUAUAUCUCGUACNNNNNNNNNNNNNNNNNNNNNNNNNGUUUUAGAGUCAUGUUAAAGAACAUAGCAAGUUAAAAUAAGGUUUUAACCGUAAUCAACUGUAAAGUGGCGCUGUUUCGGCGCUUUUUUUGUUU / GAGCGGACAGCAGCTTCCTAAATCTCGTAC / GTACGAGATTTAGGAAGCTGCTGTCCGCTC [Sequence 1 sgRNA for APG05459.1 ; target mismatch 10],52 % cleaved
2,GAGCGGACAGCAGCUUCCUAUAUCUCGUACNNNNNNNNNNNNNNNNNNNNNNNNNGUUUUAGAGUCAUGUUAAAGAACAUAGCAAGUUAAAAUAAGGUUUUAACCGUAAUCAACUGUAAAGUGGCGCUGUUUCGGCGCUUUUUUUGUUU / GAGCGGACAGCAGCTTCCTATAACTCGTAC / GTACGAGTTATAGGAAGCTGCTGTCCGCTC [Sequence 1 sgRNA for APG05459.1 ; target mismatch 8],51 % cleaved
3,GAGCGGACAGCAGCUUCCUAUAUCUCGUACNNNNNNNNNNNNNNNNNNNNNNNNNGUUUUAGAGUCAUGUUAAAGAACAUAGCAAGUUAAAAUAAGGUUUUAACCGUAAUCAACUGUAAAGUGGCGCUGUUUCGGCGCUUUUUUUGUUU / GAGCGGACAGCAGCTTCCTATATCTCGAAC / GTTCGAGATATAGGAAGCTGCTGTCCGCTC [Sequence 1 sgRNA for APG05459.1 ; target mismatch 3],3 % cleaved
4,GAGCGGACAGCAGCUUCCUAUAUCUCGUACNNNNNNNNNNNNNNNNNNNNNNNNNGUUUUAGAGUCAUGUUAAAGAACAUAGCAAGUUAAAAUAAGGUUUUAACCGUAAUCAACUGUAAAGUGGCGCUGUUUCGGCGCUUUUUUUGUUU / GAGCGGACAGCAGCTTCCTATATCTCGTAG / CTACGAGATATAGGAAGCTGCTGTCCGCTC [Sequence 1 sgRNA for APG05459.1 ; target mismatch 1],0 % cleaved
5,GAGCGGACAGCAGCUUCCUAUAUCUCGUACNNNNNNNNNNNNNNNNNNNNNNNNNGUUUUAGAGUCAUGUUAAAGAACAUAGCAAGUUAAAAUAAGGUUUUAACCGUAAUCAACUGUAAAGUGGCGCUGUUUCGGCGCUUUUUUUGUUU / GAGCGGACAGCAGCTTCCTATATCTCGTTC / GAACGAGATATAGGAAGCTGCTGTCCGCTC [Sequence 1 sgRNA for APG05459.1 ; target mismatch 2],74 % cleaved
6,GAGCGGACAGCAGCUUCCUAUAUCUCGUACNNNNNNNNNNNNNNNNNNNNNNNNNGUUUUAGAGUCAUGUUAAAGAACAUAGCAAGUUAAAAUAAGGUUUUAACCGUAAUCAACUGUAAAGUGGCGCUGUUUCGGCGCUUUUUUUGUUU / GAGCGGACAGCAGCTTCCTATATCTGGTAC / GTACCAGATATAGGAAGCTGCTGTCCGCTC [Sequence 1 sgRNA for APG05459.1 ; target mismatch 5],0 % cleaved
7,GAGCGGACAGCAGCUUCCUAUAUCUCGUACNNNNNNNNNNNNNNNNNNNNNNNNNGUUUUAGAGUCAUGUUAAAGAACAUAGCAAGUUAAAAUAAGGUUUUAACCGUAAUCAACUGUAAAGUGGCGCUGUUUCGGCGCUUUUUUUGUUU / GAGCGGACAGCAGCTTCGTATATCTCGTAC / GTACGAGATATACGAAGCTGCTGTCCGCTC [Sequence 1 sgRNA for APG05459.1 ; target mismatch 13],18 % cleaved
8,GAGCGGACAGCAGCUUCCUAUAUCUCGUACNNNNNNNNNNNNNNNNNNNNNNNNNGUUUUAGAGUCAUGUUAAAGAACAUAGCAAGUUAAAAUAAGGUUUUAACCGUAAUCAACUGUAAAGUGGCGCUGUUUCGGCGCUUUUUUUGUUU / GAGCGGACTGCAGCTTCCTATATCTCGTAC / GTACGAGATATAGGAAGCTGCAGTCCGCTC [Sequence 1 sgRNA for APG05459.1 ; target mismatch 22],48 % cleaved

# Same assay, conditions: PAM SEQ 41; blunt cut 3 from PAM (Table 3)
row,Molecule,activity
1,GAGCGGACAGCAGCUUCCUAUAUCUCGUACNNNNNNNNNNNNNNNNNNNNNNNNNGUUUUAGAGUCAUGUUAAAGAACAUAGCAAGUUAAAAUAAGGUUUUAACCGUAAUCAACUGUAAAGUGGCGCUGUUUCGGCGCUUUUUUUGUUU / GAGCGGACAGCAGCTTCCTATATCTCGTAC / GTACGAGATATAGGAAGCTGCTGTCCGCTC [Sequence 1 sgRNA for APG05459.1 ; Sequence 1 target],67 % cleaved

# Same assay, conditions: incompatible PAM
row,Molecule,activity
1,GAGCGGACAGCAGCUUCCUAUAUCUCGUACNNNNNNNNNNNNNNNNNNNNNNNNNGUUUUAGAGUCAUGUUAAAGAACAUAGCAAGUUAAAAUAAGGUUUUAACCGUAAUCAACUGUAAAGUGGCGCUGUUUCGGCGCUUUUUUUGUUU / GAGCGGACAGCAGCTTCCTATATCTCGTAC / GTACGAGATATAGGAAGCTGCTGTCCGCTC,0 % cleaved

# Target: T2, APG05083.1
# Assay: cell_activity; HEK293T; PAM NNNNCC
# Conditions: tags: E. coli pRSF-1b expression; human cells: N-term SV40 NLS and 3xFLAG, C-term nucleoplasmin NLS
# Description: The constructs described above were introduced into mammalian cells. One day prior to transfection, 1×10⁵ HEK293T cells/well (Sigma) were plated in 24-well dishes in Dulbecco's modified Eagle medium (DMEM) plus 10% (vol/vol) fetal bovine serum (Gibco) and 1% Penicillin-Streptomycin (Gibco). The next day when the cells were at 50-60% confluency, 500 ng of a RGN expression plasmid plus 500 ng of a single gRNA expression plasmid were co-transfected using […] of Lipofectamine 3000 (Thermo Scientific) per well, following the manufacturer's instructions. After 48 hours of growth, total genomic DNA was harvested using a genomic DNA isolation kit (Machery-Nagel) according to the manufacturer's instructions.
# Additionally, products from PCR #2 containing Illumina overhang sequences underwent library preparation following the Illumina 16S Metagenomic Sequencing Library protocol. Deep sequencing was performed on an Illumina Mi-Seq platform by a service provider (MOGene). Typically 200,000 of 250 bp paired-end reads (2×100,000 reads) are generated per amplicon. The reads were analyzed using CRISPResso (Pinello, et al. 2016 Nature Biotech, 34:695-697) to calculate the rates of editing. Output alignments were hand-curated to confirm insertion and deletion sites as well as identify microhomology sites at the recombination sites. All experiments were performed in human cells. The “target sequence” is the targeted sequence within the gene target. For each target sequence, the guide RNA comprised the complementary RNA target sequence and the appropriate sgRNA depending on the RGN used.
row,Molecule,activity
1,Guide 185 ; RelA target of guide 185 (ssRNA ; dsDNA) RNA: GGACAGUGCGCAUCUCCCUGGUCAUAGUUCCAUUAUUGCAAAGGCUUUGAUGUUUCUAUGAUAAGGGCUUAGGCCCGUGGCGUUGGGGAUCGCCUGCCCAUUUUAAUGGGCUUCUCCCCAUCUAUUU DNA 1: GGACAGTGCGCATCTCCCTG DNA 2: CAGGGAGATGCGCACTGTCC,8.2 % editing
2,Guide 168 ; HPRT1 target of guide 168 (ssRNA ; dsDNA) RNA: CACAUCUCGAGCAAGACGUUGUCAUAGUUCCAUUAUUGCAAAGGCUUUGAUGUUUCUAUGAUAAGGGCUUAGGCCCGUGGCGUUGGGGAUCGCCUGCCCAUUUUAAUGGGCUUCUCCCCAUCUAUUU DNA 1: CACATCTCGAGCAAGACGTT DNA 2: AACGTCTTGCTCGAGATGTG,11.3 % editing

# — patent publication US20250283117, “RNA-GUIDED NUCLEASES AND ACTIVE FRAGMENTS AND VARIANTS THEREOF AND METHODS OF USE” (Life Edit Therapeutics, Inc., published 2025)
